Assay results published in patent US20110263454A1, “Methods of Identifying Functional Characteristics of Promoters, Transcription Modifying Proteins and Transcription Modulating Agents” (Salk Institute for Biological Studies, priority 2008, published 2011).

B1: CAR: Constitutive Androstane Receptor (NR1I3), cDNA driver (protein, UniProt Q14994 1-352, looked up)
Nuclear receptor subfamily 1 …: MASREDELRNCVVCGDQATGYHFNALTCEGCKGFFRRTVSKSIGPTCPFAGSCEVSKTQRRHCPACRLQKCLDAGMRKDMILSAEALALRRAKQAQRRAQQTPVQLSKEQEELIRTLLGAHTRHMGTMFEQFVQFRPPAHLFIHHQPLPTLAPVLPLVTHFADINTFMVLQVIKFTKDLPVFRSLPIEDQISLLKGAAVEICHIVLNTTFCLQTQNFLCGPLRYTIEDGARVSPTVGFQVEFLELLFHFHGTLRKLQLQEPEYVLLAAMALFSPDRPGVTQRDEIDQLQEEMALTLQSYIKGQQRRPRDRFLYAKLLGLLAELRSINEAYGYQIQHIQGLSAMMPLLQEICS
B2: RORb: RAR-related Orphan Receptor β (NR1F2), cDNA driver (protein, UniProt Q92753 1-470, looked up)
Nuclear receptor ROR-beta: MCENQLKTKADATAQIEVIPCKICGDKSSGIHYGVITCEGCKGFFRRSQQNNASYSCPRQRNCLIDRTNRNRCQHCRLQKCLALGMSRDAVKFGRMSKKQRDSLYAEVQKHQQRLQEQRQQQSGEAEALARVYSSSISNGLSNLNNETSGTYANGHVIDLPKSEGYYNVDSGQPSPDQSGLDMTGIKQIKQEPIYDLTSVPNLFTYSSFNNGQLAPGITMTEIDRIAQNIIKSHLETCQYTMEELHQLAWQTHTYEEIKAYQSKSREALWQQCAIQITHAIQYVVEFAKRITGFMELCQNDQILLLKSGCLEVVLVRMCRAFNPLNNTVLFEGKYGGMQMFKALGSDDLVNEAFDFAKNLCSLQLTEEEIALFSSAVLISPDRAWLIEPRKVQKLQEKIYFALQHVIQKNHLDDETLAKLIAKIPTITAVCNLHGEKLQVFKQSHPEIVNTLFPPLYKELFNPDCATGCK
B3: TR2: Testicular Orphan Nuclear Receptor 2 (NR2C1), cDNA driver (protein, UniProt P13056 1-603, looked up)
Nuclear receptor subfamily 2 …: MATIEEIAHQIIEQQMGEIVTEQQTGQKIQIVTALDHNTQGKQFILTNHDGSTPSKVILARQDSTPGKVFLTTPDAAGVNQLFFTTPDLSAQHLQLLTDNSPDQGPNKVFDLCVVCGDKASGRHYGAVTCEGCKGFFKRSIRKNLVYSCRGSKDCIINKHHRNRCQYCRLQRCIAFGMKQDSVQCERKPIEVSREKSSNCAASTEKIYIRKDLRSPLTATPTFVTDSESTRSTGLLDSGMFMNIHPSGVKTESAVLMTSDKAESCQGDLSTLANVVTSLANLGKTKDLSQNSNEMSMIESLSNDDTSLCEFQEMQTNGDVSRAFDTLAKALNPGESTACQSSVAGMEGSVHLITGDSSINYTEKEGPLLSDSHVAFRLTMPSPMPEYLNVHYIGESASRLLFLSMHWALSIPSFQALGQENSISLVKAYWNELFTLGLAQCWQVMNVATILATFVNCLHNSLQQDKMSTERRKLLMEHIFKLQEFCNSMVKLCIDGYEYAYLKAIVLFSPDHPSLENMEQIEKFQEKAYVEFQDYITKTYPDDTYRLSRLLLRLPALRLMNATITEELFFKGLIGNIRIDSVIPHILKMEPADYNSQIIGHSI
B4: TR4: Testicular Orphan Nuclear Receptor 4 (NR2C2), cDNA driver (protein, UniProt P49116 1-596, looked up)
Nuclear receptor subfamily 2 …: MTSPSPRIQIISTDSAVASPQRIQIVTDQQTGQKIQIVTAVDASGSPKQQFILTSPDGAGTGKVILASPETSSAKQLIFTTSDNLVPGRIQIVTDSASVERLLGKTDVQRPQVVEYCVVCGDKASGRHYGAVSCEGCKGFFKRSVRKNLTYSCRSNQDCIINKHHRNRCQFCRLKKCLEMGMKMESVQSERKPFDVQREKPSNCAASTEKIYIRKDLRSPLIATPTFVADKDGARQTGLLDPGMLVNIQQPLIREDGTVLLATDSKAETSQGALGTLANVVTSLANLSESLNNGDTSEIQPEDQSASEITRAFDTLAKALNTTDSSSSPSLADGIDTSGGGSIHVISRDQSTPIIEVEGPLLSDTHVTFKLTMPSPMPEYLNVHYICESASRLLFLSMHWARSIPAFQALGQDCNTSLVRACWNELFTLGLAQCAQVMSLSTILAAIVNHLQNSIQEDKLSGDRIKQVMEHIWKLQEFCNSMAKLDIDGYEYAYLKAIVLFSPDHPGLTSTSQIEKFQEKAQMELQDYVQKTYSEDTYRLARILVRLPALRLMSSNITEELFFTGLIGNVSIDSIIPYILKMETAEYNGQITGASL
B5: PXR: Pregnane X Receptor (NR1I2), cDNA driver (protein, UniProt O75469 1-434, looked up)
Nuclear receptor subfamily 1 …: MEVRPKESWNHADFVHCEDTESVPGKPSVNADEEVGGPQICRVCGDKATGYHFNVMTCEGCKGFFRRAMKRNARLRCPFRKGACEITRKTRRQCQACRLRKCLESGMKKEMIMSDEAVEERRALIKRKKSERTGTQPLGVQGLTEEQRMMIRELMDAQMKTFDTTFSHFKNFRLPGVLSSGCELPESLQAPSREEAAKWSQVRKDLCSLKVSLQLRGEDGSVWNYKPPADSGGKEIFSLLPHMADMSTYMFKGIISFAKVISYFRDLPIEDQISLLKGAAFELCQLRFNTVFNAETGTWECGRLSYCLEDTAGGFQQLLLEPMLKFHYMLKKLQLHEEEYVLMQAISLFSPDRPGVLQHRVVDQLQEQFAITLKSYIECNRPQPAHRFLFLKIMAMLTELRSINAQHTQRLLRIQDIHPFATPLMQELFGITGS
B6: RXRb: Retinoic X Receptor β (NR2B2), cDNA driver (protein, UniProt P28702 1-533, looked up)
Retinoic acid receptor …: MSWAARPPFLPQRHAAGQCGPVGVRKEMHCGVASRWRRRRPWLDPAAAAAAAVAGGEQQTPEPEPGEAGRDGMGDSGRDSRSPDSSSPNPLPQGVPPPSPPGPPLPPSTAPSLGGSGAPPPPPMPPPPLGSPFPVISSSMGSPGLPPPAPPGFSGPVSSPQINSTVSLPGGGSGPPEDVKPPVLGVRGLHCPPPPGGPGAGKRLCAICGDRSSGKHYGVYSCEGCKGFFKRTIRKDLTYSCRDNKDCTVDKRQRNRCQYCRYQKCLATGMKREAVQEERQRGKDKDGDGEGAGGAPEEMPVDRILEAELAVEQKSDQGVEGPGGTGGSGSSPNDPVTNICQAADKQLFTLVEWAKRIPHFSSLPLDDQVILLRAGWNELLIASFSHRSIDVRDGILLATGLHVHRNSAHSAGVGAIFDRVLTELVSKMRDMRMDKTELGCLRAIILFNPDAKGLSNPSEVEVLREKVYASLETYCKQKYPEQQGRFAKLLLRLPALRSIGLKCLEHLFFFKLIGDTPIDTFLMEMLEAPHQLA
B7: RXRg: Retinoic X Receptor γ (NR2B3), cDNA driver (protein, UniProt P48443 1-463, looked up)
Retinoic acid receptor …: MYGNYSHFMKFPAGYGGSPGHTGSTSMSPSAALSTGKPMDSHPSYTDTPVSAPRTLSAVGTPLNALGSPYRVITSAMGPPSGALAAPPGINLVAPPSSQLNVVNSVSSSEDIKPLPGLPGIGNMNYPSTSPGSLVKHICAICGDRSSGKHYGVYSCEGCKGFFKRTIRKDLIYTCRDNKDCLIDKRQRNRCQYCRYQKCLVMGMKREAVQEERQRSRERAESEAECATSGHEDMPVERILEAELAVEPKTESYGDMNMENSTNDPVTNICHAADKQLFTLVEWAKRIPHFSDLTLEDQVILLRAGWNELLIASFSHRSVSVQDGILLATGLHVHRSSAHSAGVGSIFDRVLTELVSKMKDMQMDKSELGCLRAIVLFNPDAKGLSNPSEVETLREKVYATLEAYTKQKYPEQPGRFAKLLLRLPALRSIGLKCLEHLFFFKLIGDTPIDTFLMEMLETPLQIT
B8: HNF4g: Hepatocyte Nuclear Factor γ (NR2A2), cDNA driver (protein, UniProt Q14541 1-408, looked up)
Hepatocyte nuclear factor …: MNTTDNGVNCLCAICGDRATGKHYGASSCDGCKGFFRRSIRKSHVYSCRFSRQCVVDKDKRNQCRYCRLRKCFRAGMKKEAVQNERDRISTRRSTFDGSNIPSINTLAQAEVRSRQISVSSPGSSTDINVKKIASIGDVCESMKQQLLVLVEWAKYIPAFCELPLDDQVALLRAHAGEHLLLGATKRSMMYKDILLLGNNYVIHRNSCEVEISRVANRVLDELVRPFQEIQIDDNEYACLKAIVFFDPDAKGLSDPVKIKNMRFQVQIGLEDYINDRQYDSRGRFGELLLLLPTLQSITWQMIEQIQFVKLFGMVKIDNLLQEMLLGGASNDGSHLHHPMHPHLSQDPLTGQTILLGPMSTLVHADQISTPETPLPSPPQGSGQEQYKIAANQASVISHQHLSKQKQL

Tests used:
hTNFa promoter = test: NHR-promoter luciferase screen, hTNFa promoter; format: cell-based, human; conditions: for Luc. act., normalized to lacZ / Normalized Luc. act., normalized to control: TNFa promoter, HR component without or with ligand; for hTNFa promoter reporter activity: transcription factor +/- ligand, control = 1.00
Procedure, shortened: (§1)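 CV-1 cells were co-transfected with 50 ng NHR (homodimer or NHR/RXR heterodimer), 100 ng promoter-luciferase construct and 50 ng LacZ. Luciferase was normalized to LacZ and to a no-NHR/no-ligand control.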

mNPY promoter = test: NHR-promoter luciferase screen, mNPY promoter; format: cell-based, mouse; conditions: for Results of assays of transcription factor (+/- ligand) with mNPY: Table 6d, luciferase activity relative to control (control = 1.00); for Luc. act., normalized to lacZ / Normalized Luc. act., normalized to control: mNPY promoter, HR component with or without ligand; for Normalized Luc. act., normalized to control: relative to control
Procedure, shortened: as §1

hCAR promoter = test: NHR-promoter luciferase screen, hCAR promoter; format: cell-based, human; conditions: for luciferase activity normalized to lacZ activity and to a control, hCAR: hCAR promoter-luciferase, CV-1 cells, NHR +/- ligand, control = 1.00; for Luc. act., normalized to lacZ / Normalized Luc. act., normalized to control: hCAR promoter, HR/ligand component
Procedure, shortened: as §1

Row | Molecule | Luc. act., normalized to lacZ (hTNFa promoter) | Normalized Luc. act., normalized to control (hTNFa promoter) | hTNFa promoter reporter activity (hTNFa promoter) | Results of assays of transcription factor (+/- ligand) with mNPY (mNPY promoter) | Luc. act., normalized to lacZ (mNPY promoter) | Normalized Luc. act., normalized to control (mNPY promoter) | luciferase activity normalized to lacZ activity and to a control, hCAR (hCAR promoter) | Luc. act., normalized to lacZ (hCAR promoter) | Normalized Luc. act., normalized to control (hCAR promoter)
1 | B1 | 908.2 | 0.9 | 0.92 | 0.88 | 74.2 | 0.9 | 0.82 | 25.9 | 0.8
2 | B2 | 1029.5 | 1.0 | 1.05 | 1.12 | 94.2 | 1.1 | 1.05 | 33.3 | 1.1
3 | B3 | 1038.2 | 1.1 | 1.06 | 1.27 | 106.6 | 1.3 | 2.30 | 72.7 | 2.3
4 | B4 | 1189.6 | 1.2 | 1.21 | 2.86 | 239.8 | 2.9 | 3.15 | 99.4 | 3.1
5 | B5 | 1152.4 | 1.2 | 1.17 | 0.83 | 69.8 | 0.8 | 1.16 | 36.5 | 1.2
6 | B6 | 1036.3 | 1.1 | 1.05 | 0.80 | 66.9 | 0.8 | 0.95 | 30.1 | 1.0
7 | B7 | 1025.0 | 1.0 | 1.04 | 0.97 | 81.2 | 1.0 | 0.93 | 29.3 | 0.9
8 | B8 | 859.3 | 0.9 | 0.87 | 0.96 | 80.7 | 1.0 | 0.81 | 25.5 | 0.8
